Target: human BimEL (Bcl-2-Interacting Mediator of cell death, Extra Long isoform)

B1: human RSK1 (p90rsk/MAPKAP kinase-1) (protein)
chain: MEQDPKPPRLRLWALIPWLPRKQRPRISQTSLPVPGPGSGPQRDSDEGVLKEISITHHVKAGSEKADPSHFELLKVLGQGSFGKVFLVRKVTRPDSGHLYAMKVLKKATLKVRDRVRTKMERDILADVNHPFVVKLHYAFQTEGKLYLILDFLRGGDLFTRLSKEVMFTEEDVKFYLAELALGLDHLHSLGIIYRDLKPENILLDEEGHIKLTDFGLSKEAIDHEKKAYSFCGTVEYMAPEVVNRQGHSHSADWWSYGVLMFEMLTGSLPFQGKDRKETMTLILKAKLGMPQFLSTEAQSLLRALFKRNPANRLGSGPDGAEEIKRHVFYSTIDWNKLYRREIKPPFKPAVAQPDDTFYFDTEFTSRTPKDSPGIPPSAGAHQLFRGFSFVATGLMEDDGKPRAPQAPLHSVVQQLHGKNLVFSDGYVVKETIGVGSYSECKRCVHKATNMEYAVKVIDKSKRDPSEEIEILLRYGQHPNIITLKDVYDDGKHVYLVTELMRGGELLDKILRQKFFSEREASFVLHTIGKTVEYLHSQGVVHRDLKPSNILYVDESGNPECLRICDFGFAKQLRAENGLLMTPCYTANFVAPEVLKRQGYDEGCDIWSLGILLYTMLAGYTPFANGPSDTPEEILTRIGSGKFTLSGGNWNTVSETAKDLVSKMLHVDPHQRLTAKQVLQHPWVTQKDKLPQSQLSHQDLQLVKGAMAATYSALNSSKPTPQLKPIESSILAQRRVRKLPSTTL
in vitro kinase assay: phosphorylation of BimEL on serines 93/94/98: RSK1 phosphorylates BimEL in vitro on serines 93/94/98 (the degron serines)

— patent publication US20090318535
